According to patent publication US6348311B1, “ATM kinase modulation for screening and therapies” (St. Jude Childre's Research Hospital, priority 1999, dated 2002):
Where no end group is shown, it is not given here.

What was measured:
Type in all cases: biochemical
DNA-PK = DNA-PK (Homo sapiens, UniProt P78527); test: In vitro kinase assay, purified DNA-PK with GST-peptide / GST-fusion substrates; conditions: for Relative Phosphorylation (%) DNA-PK: GST-peptide substrate, relative to the p53ser15 site
Method: (§1) FIGS. 1A, 1B, and 1C. Phosphorylation of GST-p53 mutant peptides (amino acids 9-21) by ATM, ATR, and DNA-PK in vitro. In vitro kinase assays with immunoprecipitated, transfected flag-tagged ATM (A) or ATR (B) or purified DNA-PK (C) were performed with GST-p53 peptides containing the amino acid substitutions indicated. The amount of 32P-labeled GST-peptides was quantitated with a PhosphorImager and was normalized for each of the kinases to the level of phosphorylation of wild-type GST-p53.
(§2) FIGS. 2A, 2B, and 2C. Phosphorylation of candidate targets of by ATM, ATR and DNA-PK in vitro. GST-peptides containing the putative target sequences were used as substrates for the kinase assay.
(§3) Plasmids and GST-fusion protein production. For GST fusion peptide expression vectors, complementary oligonucleotides encoding desired peptides (14 amino acids) were cloned into the BamHI/SmaI site of pGEX-2T (Pharmacia). The constructs were confirmed by restriction enzyme digests and DNA sequencing. To construct the larger GST-p95 (327-391) protein fragment, p95 DNA encoding amino acids 327-391 was amplified by PCR with Pfu polymerase using the following primers: 5′ sense,
In vitro kinase assays and immunoprecipitation. […] Cleared supernatants were immunoprecipitated with anti-Flag M2 antibody and protein A/G agarose, the beads were washed with TGN buffer followed by TGN buffer plus 0.5 M LiCl, and two washes with kinase buffer [20 mM HEPES (pH 7.5), 50 mM NaCl, 10 mM MgCl2, 1 mM dithiothreitol (DTT) and 10 mM MnCl2]. […] ATP and […] of GST-fusion substrate (GST-p53:1-101), in varying concentration of Mn^2+. The kinase reaction was conducted at 30° C. for 20 min and stopped by the addition of SDS-PAGE loading buffer. Proteins were separated on SDS-polyacrylamide gel electrophoresis (SDS-PAGE) and transferred to nitrocellulose. Radiolabeled proteins were visualized and quantitated on a Phosphorimager (Molecular Dynamics). Use of equivalent amounts of flag-tagged ATM or ATR in the different lanes was confirmed by immunoblotting with anti-flag antibody. In some reactions, either supercoiled DNA (pBluescript II KS, Stratagene) or linearized DNA (pBluescript II KS cut with EcoR1) was added ([…]). For endogenous ATM kinase reactions, endogenous ATM was immunoprecipitated from GM0536 lymphhoblasts with ATM monoclonal antibody (D16.11) in M buffer (PBS, 10% glycerol, 0.2% Tween 20, 0.3% NP-40, 1 mM NaF, 1 mM Na3VO4, 1 mM PMSF, 1x protease inhibitor mixture]. After washing with M buffer and kinase buffer, in vitro kinase reactions were carried out according to procedures described above. The DNA-PK in vitro kinase reaction was performed as previously described (Gottlieb and Jackson, 1993), using 20 ng each of DNA-PKcs or DNA-PK (20 ng DNA-PKcs premixed with 20 ng Ku 70/80).

ATM kinase = target: T1, ATM kinase (Homo sapiens, UniProt Q13315); test: In vitro kinase assay, ATM with GST-peptide / GST-fusion substrates; conditions: for Relative Phosphorylation (%) ATM: GST-peptide substrate, relative to the p53ser15 site;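 for all read-outs here: immunoprecipitated ATM incubated with [γ-32P]ATP at 30 °C for 20 min, substrates resolved by SDS-PAGE and radiolabel incorporation quantified by PhosphorImager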
T1 construct: The full-length cDNA encoding NH2-terminal, FLAG-tagged wild-type ATM; made in house; host or cells: 293T cells, transient transfection with pcDNA-FLAG-ATMwt, anti-FLAG M2 immunoprecipitate on beads

ATR = target: T2, ATR (Homo sapiens, UniProt Q13535); test: In vitro kinase assay, ATR with GST-peptide / GST-fusion substrates; conditions: GST-peptide substrate; relative to the p53ser15 site
T2 construct: made in house; host or cells: 293T cells, transient transfection with pBJF-FRPwt, anti-FLAG M2 immunoprecipitate
Method: as §1, §2
Transfection and Kinase Activity Assays. 293T cells were transiently transfected with 10 μg of either pcDNA-FLAG-ATMwt, pcDNA-FLAG-ATMkd, pBJF-FRPwt or pBJF-FRPkd (Cliby et al., EMBO J., 17:159, 1998) using calcium phosphate and harvested two days later. Cells were lysed through sonication in TGN buffer [50 mM Tris (pH 7.5), 50 mM glycerophosphate, 150 mM NaCl, 10% glycerol, 1% Tween 20, 1 mM NaF, 1 mM NaVO4, 1 mM PMSF, […] Pepstatin A, 5 μg/ml leupeptin, 10 μg/ml Aprotinin and 1 mM DTT] as described (Brunn et al., Science, 277:99-101,1997). After centrifugation at 13,000 ×g, 2 mg of extract were incubated with mouse IgG and protein A/G sepharose beads (Calbiochem). FLAG-tagged proteins were then immunoprecipitated with anti-FLAG M2 monoclonal antibody (Eastman Kodak Company) and protein A/G sepharose beads. Immunoprecipitates were washed twice with TGN buffer, once with 100 mM Tris (pH 7.5) plus 0.5 M LiCl, and twice with kinase buffer [10 mM Hepes (pH 7.5), 50 mM glycerophosphate, 50 mM NaCl, 10 mM MgCl2, 10 mM MnCl2, 5 μM ATP, and 1 mM DTT]. Kinase reactions were initiated by resuspending washed beads in 30 μl of kinase buffer containing 10 μCi [γ-^32P]ATP and 1 μg GSTp531-101 and incubated for 30 minutes at 30° C. Proteins were electrophoretically separated by SDS-polyacrylamide gel electrophoresis, transferred to nitrocellulose, and analyzed on a PhosphorImager. FLAG-tagged proteins and GSTp531-101 were subjected to immunoblotting with either anti-FLAG M2 antibody or monoclonal antibodies directed towards the NH2-terminus of p53 (Ab-2 and Ab-6, Calbiochem) as described (Siliciano et al., Genes Dev., 11:3471, 1997).
Phosphorylation of Ser^15 of p53 by ATM and ATR/FRP1 in vitro. […] Proteins from each reaction were separated by SDS polyacrylamide gel electrophoresis (7% gel), transferred to nitrocellulose, and analyzed either on a PhosphorImager or by immunoblotting. Amounts of FLAG-tagged ATM or ATR in each kinase reaction were measured by immunoblotting with anti-FLAG M2 (top panel) and amount of [γ^32P]phosphate incorporated into ATM or ATR during the reaction (lower panel). […] An upper immunoreactive band represents phosphorylated GSTp53 fusion protein. The same exposures were used for ATM, ATR/FRP1 and corresponding substrate proteins.
as §3
In vitro kinase assays and immunoprecipitation. […] Cleared supernatants were immunoprecipitated with anti-Flag M2 antibody and protein A/G agarose, the beads were washed with TGN buffer followed by TGN buffer plus 0.5 M LiCl, and two washes with kinase buffer [20 mM HEPES (pH 7.5), 50 mM NaCl, 10 mM MgCl2, 1 mM dithiothreitol (DTT) and 10 mM MnCl2]. […] ATP and […] of GST-fusion substrate (GST-p53:1-101), in varying concentration of Mn^2+. […]

[1] = GST-conjugated 14 amino acid peptides

T1 sequence (Q13315 whole entry, the tested form may be a part): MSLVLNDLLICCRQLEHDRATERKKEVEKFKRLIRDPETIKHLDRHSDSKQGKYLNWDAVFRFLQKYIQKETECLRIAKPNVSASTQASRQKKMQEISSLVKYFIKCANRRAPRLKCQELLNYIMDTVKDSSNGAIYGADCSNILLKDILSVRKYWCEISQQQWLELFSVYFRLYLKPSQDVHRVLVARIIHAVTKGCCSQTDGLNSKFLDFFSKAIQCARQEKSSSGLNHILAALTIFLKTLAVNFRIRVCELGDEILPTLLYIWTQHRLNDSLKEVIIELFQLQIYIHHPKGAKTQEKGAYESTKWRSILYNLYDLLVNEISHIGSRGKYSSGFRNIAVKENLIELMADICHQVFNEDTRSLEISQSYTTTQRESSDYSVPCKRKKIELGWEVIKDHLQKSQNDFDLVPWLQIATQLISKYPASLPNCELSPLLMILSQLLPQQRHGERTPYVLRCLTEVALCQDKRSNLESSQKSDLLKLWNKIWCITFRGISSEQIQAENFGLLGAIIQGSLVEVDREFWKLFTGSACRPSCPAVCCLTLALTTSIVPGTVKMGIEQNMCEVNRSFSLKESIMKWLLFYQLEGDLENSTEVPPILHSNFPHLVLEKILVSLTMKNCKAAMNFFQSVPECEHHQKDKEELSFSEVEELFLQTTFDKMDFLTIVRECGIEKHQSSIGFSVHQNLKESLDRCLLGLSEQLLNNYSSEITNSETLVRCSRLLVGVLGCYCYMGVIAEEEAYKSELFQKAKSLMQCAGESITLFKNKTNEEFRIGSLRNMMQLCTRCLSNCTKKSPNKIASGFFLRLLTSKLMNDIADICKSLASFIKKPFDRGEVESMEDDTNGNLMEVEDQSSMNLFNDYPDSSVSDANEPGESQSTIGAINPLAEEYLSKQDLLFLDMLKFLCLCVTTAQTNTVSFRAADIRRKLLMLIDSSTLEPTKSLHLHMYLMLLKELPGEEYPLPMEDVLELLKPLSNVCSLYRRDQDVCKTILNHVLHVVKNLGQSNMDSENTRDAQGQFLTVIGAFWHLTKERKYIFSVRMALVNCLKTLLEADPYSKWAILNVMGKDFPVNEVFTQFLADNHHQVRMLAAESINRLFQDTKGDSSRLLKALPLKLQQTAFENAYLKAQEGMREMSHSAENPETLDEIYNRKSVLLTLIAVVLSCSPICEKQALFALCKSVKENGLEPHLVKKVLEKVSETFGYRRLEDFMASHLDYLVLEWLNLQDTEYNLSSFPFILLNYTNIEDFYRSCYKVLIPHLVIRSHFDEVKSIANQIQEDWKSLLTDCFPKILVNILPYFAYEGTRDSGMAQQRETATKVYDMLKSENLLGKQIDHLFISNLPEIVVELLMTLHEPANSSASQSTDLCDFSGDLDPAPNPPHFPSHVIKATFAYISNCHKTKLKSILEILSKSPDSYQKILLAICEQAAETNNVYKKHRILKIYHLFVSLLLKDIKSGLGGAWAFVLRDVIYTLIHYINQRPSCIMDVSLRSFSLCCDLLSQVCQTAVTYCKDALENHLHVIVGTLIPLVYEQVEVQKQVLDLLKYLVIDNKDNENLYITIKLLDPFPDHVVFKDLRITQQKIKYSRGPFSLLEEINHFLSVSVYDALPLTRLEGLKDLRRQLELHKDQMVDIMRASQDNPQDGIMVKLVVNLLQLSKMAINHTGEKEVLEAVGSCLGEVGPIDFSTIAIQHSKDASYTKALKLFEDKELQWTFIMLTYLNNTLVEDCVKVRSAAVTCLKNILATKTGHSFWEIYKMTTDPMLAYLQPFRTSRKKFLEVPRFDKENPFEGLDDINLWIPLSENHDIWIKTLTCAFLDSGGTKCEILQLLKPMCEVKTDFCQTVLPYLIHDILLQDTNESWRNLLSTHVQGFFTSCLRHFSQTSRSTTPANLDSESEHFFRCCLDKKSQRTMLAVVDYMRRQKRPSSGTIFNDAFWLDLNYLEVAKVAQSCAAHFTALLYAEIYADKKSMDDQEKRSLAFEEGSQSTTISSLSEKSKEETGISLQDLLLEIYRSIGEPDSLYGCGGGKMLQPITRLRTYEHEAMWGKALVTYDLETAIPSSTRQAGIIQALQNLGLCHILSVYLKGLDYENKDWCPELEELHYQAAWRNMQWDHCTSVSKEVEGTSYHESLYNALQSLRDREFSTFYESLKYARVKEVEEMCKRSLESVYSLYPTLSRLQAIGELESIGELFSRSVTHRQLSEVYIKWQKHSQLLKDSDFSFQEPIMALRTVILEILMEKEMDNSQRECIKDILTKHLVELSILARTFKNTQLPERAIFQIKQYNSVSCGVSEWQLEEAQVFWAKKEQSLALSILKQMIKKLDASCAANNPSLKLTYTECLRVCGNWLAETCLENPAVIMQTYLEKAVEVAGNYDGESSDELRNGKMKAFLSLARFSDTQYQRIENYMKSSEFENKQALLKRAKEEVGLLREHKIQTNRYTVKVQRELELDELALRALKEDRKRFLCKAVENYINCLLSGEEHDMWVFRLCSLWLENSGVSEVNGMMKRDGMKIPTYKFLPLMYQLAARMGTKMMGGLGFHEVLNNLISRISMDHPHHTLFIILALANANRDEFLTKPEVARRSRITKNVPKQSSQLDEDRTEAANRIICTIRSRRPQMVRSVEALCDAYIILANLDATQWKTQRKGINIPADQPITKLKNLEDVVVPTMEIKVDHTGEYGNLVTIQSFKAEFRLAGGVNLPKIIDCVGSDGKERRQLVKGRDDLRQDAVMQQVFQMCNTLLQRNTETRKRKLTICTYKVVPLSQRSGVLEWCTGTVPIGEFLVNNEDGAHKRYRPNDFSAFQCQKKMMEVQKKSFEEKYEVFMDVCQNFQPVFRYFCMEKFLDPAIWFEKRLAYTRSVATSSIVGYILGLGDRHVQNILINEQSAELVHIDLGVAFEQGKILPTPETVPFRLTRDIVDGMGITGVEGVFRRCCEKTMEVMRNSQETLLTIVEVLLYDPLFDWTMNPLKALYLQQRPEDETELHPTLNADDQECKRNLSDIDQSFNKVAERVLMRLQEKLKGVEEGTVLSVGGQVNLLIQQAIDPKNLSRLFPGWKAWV

Row | Substance | Relative Phosphorylation (%) DNA-PK (DNA-PK) [%] | Relative Phosphorylation (%) ATM (ATM kinase) [%] | Relative Phosphorylation (%) ATR (ATR) [%] | phosphorylation of GST-peptide substrate by DNA-PK (in words) (DNA-PK; [1]) | phosphorylation of GST-peptide substrate by ATM (in words) (ATM kinase; [1])
1 | DNA 5B: GST-peptide QPEPPVSQSEISEP (SEQ ID NO:38), S72 (also: GST fusion) | 15 | 3 | 145 | – | –
2 | DNA LIG-IV: GST-peptide DLKLGVSQQTIFSV (SEQ ID NO:39), S132 (also: GST fusion) | 48 | 5 | 36 | phosphorylated by DNA-PKcs | not by ATM
3 | MRE11 (SQ1): GST-peptide QQLFYISQPGSSVV (SEQ ID NO:11), S264 (also: GST fusion) | 10 | 20 | 48 | – | –
4 | MRE11 (SQ2): GST-peptide FSVLRFSQKFVDRV (SEQ ID NO:12), S386 (also: GST fusion) | <1 | <1 | 17 | – | –
5 | MRE11 (SQ3): GST-peptide RARALRSQSEESAS (SEQ ID NO:13), S531 (also: GST fusion) | <1 | <1 | 13 | – | –
6 | PI-3K: GST-peptide DLLMYLSQLVQALK (SEQ ID NO:26), S397 (also: GST fusion) | <1 | <1 | 150 | – | –
7 | PTS (123F2): GST-peptide WETPDLSQAEIEQK (SEQ ID NO:37), S61 (not fully specified (N-terminus); also: GST fusion) | 33 | 111 | 40 | – | –
8 | RAD17 (SQ1): GST-peptide TWSLPLSQDSASEL (SEQ ID NO:18), S646 (not fully specified (N-terminus); also: GST fusion) | 97 | 81 | 733 | – | –
9 | RAD17 (SQ2): GST-peptide ASELPASQPQPFSA (SEQ ID NO:19), S656 (not fully specified (N-terminus); also: GST fusion; listed as Homo sapiens) | 25 | 91 | 1065 | – | –
10 | RPA34kD (SQ1): GST-peptide FPAPAPSQAEKKSR (SEQ ID NO:40), S33 (not fully specified (N-terminus); also: GST fusion; listed as Homo sapiens) | <1 | <1 | 5 | – | –
11 | RPA34kD (SQ2): GST-peptide IVPCTISQLLSATL (SEQ ID NO:41), S52 (not fully specified (N-terminus); also: GST fusion; listed as Homo sapiens) | <1 | <1 | 31 | – | –
12 | RPA34kD (SQ3): GST-peptide TGNVEISQVTIVGI (SEQ ID NO:42), S72 (not fully specified (N-terminus); also: GST fusion; listed as Homo sapiens) | <1 | <1 | 8 | – | –
13 | WRN (SQ1): GST-peptide EKAYSSSQPVISAQ (SEQ ID NO:21), S1141 (not fully specified (N-terminus); also: GST fusion; listed as Homo sapiens) | 14 | 25 | 49 | – | –
14 | WRN (SQ2): GST-peptide TIGMHLSQAVKAGC (SEQ ID NO:20), S1292 (not fully specified (N-terminus); also: GST fusion; listed as Homo sapiens) | 5 | 10 | 33 | – | –
